Data published in patent US20210270842A1 (DYAX, published 2021).
“And” between values parts separate entries of the source, which are not always exact repeats. Identical values can stand only once.

What was measured:
[1] = target: T1, cleaved high molecular weight kininogen (HMWK) (human, UniProt P01042 19-380; P01042 390-644); assay: sandwich ELISA with coated Fab; value = C, midpoint of the printed 4-P fit; 2-chain HMWK spiked into assay buffer, analysed in 2.5% plasma
T1 construct: also called cleaved HMWK; 2-chain HMWK
T1 sequence 1: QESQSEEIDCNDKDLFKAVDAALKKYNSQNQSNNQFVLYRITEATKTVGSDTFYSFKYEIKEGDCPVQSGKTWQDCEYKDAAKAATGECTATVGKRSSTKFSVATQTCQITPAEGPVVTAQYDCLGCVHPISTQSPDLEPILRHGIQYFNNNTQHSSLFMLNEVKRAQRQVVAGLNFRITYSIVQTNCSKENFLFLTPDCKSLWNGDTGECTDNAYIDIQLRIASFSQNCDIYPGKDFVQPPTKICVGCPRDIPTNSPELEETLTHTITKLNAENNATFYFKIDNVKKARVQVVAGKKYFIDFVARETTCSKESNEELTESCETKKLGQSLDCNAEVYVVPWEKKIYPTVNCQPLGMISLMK
T1 sequence 2: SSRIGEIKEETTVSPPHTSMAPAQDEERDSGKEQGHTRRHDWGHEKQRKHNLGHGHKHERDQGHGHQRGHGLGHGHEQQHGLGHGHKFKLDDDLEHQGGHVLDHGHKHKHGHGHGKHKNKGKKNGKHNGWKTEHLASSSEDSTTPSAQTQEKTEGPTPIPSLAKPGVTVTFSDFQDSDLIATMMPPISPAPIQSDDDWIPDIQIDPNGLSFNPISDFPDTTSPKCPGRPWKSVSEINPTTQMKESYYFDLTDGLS
Description: Purified cleaved HMWK was spiked into SBT assay buffer (open circles), SBT assay buffer and analyzed in the presence of 10% plasma (squares), or HMWK-deficient plasma and analyzed in the presence of 10% plasma (triangles). Purified cleaved HMWK was also spiked into assay buffer and analyzed in the presence of 2.5% plasma (diamonds) or HMWK deficient plasma and analyzed in the presence of 2.5% plasma (closed circles). The y-axis presents the ELISA signal in absorbance units, and the x-axis presents the concentration of kininogen in μg/mL.
The following day, the plate was washed and then blocked with 2% BSA (Protease/IgG free) in PBS buffer. Following a wash, samples containing cleaved HMWK in 0.1% BSA buffer in PBS with 0.05% Tween-20 (2-Chain HMWK assay buffer). Purified protein standards (e.g., 2-chain HMWK, intact HMWK or LMWK) were spiked into HMWK-deficient plasma and diluted 1:320 in 2-chain HMWK assay buffer. Following plate washing with PBST, a mixture of 2 mouse monoclonal antibodies (11H05 and 13B12) at 1 μg/mL in 2-chain HMWK assay buffer were added for 1 hour at room temperature. […] Signal was detected by the addition of 3,3′,5,5′-tetramethylbenzidine (TMB), an HRP substrate. […] Hydrolysis of a TMB substrate was detected using a microplate reader at 450 nm-630 nm (FIG. 3). […] Using these immunoassay conditions, specifically binding to cleaved HMWK was detected.

[2] = target: T1, cleaved high molecular weight kininogen …; assay: optimized sandwich ELISA: M004-B04 capture, detection 11H05 + 13B12; value = C, midpoint of the printed 4-P fit; in-well concentration
Experimental: (§1) The following day, the plate was washed and then blocked with 2% BSA (Protease/IgG free) in PBS buffer. Following a wash, samples containing cleaved HMWK in 0.1% BSA buffer in PBS with 0.05% Tween-20 (2-Chain HMWK assay buffer). Purified protein standards (e.g., 2-chain HMWK, intact HMWK or LMWK) were spiked into HMWK-deficient plasma and diluted 1:320 in 2-chain HMWK assay buffer. Following plate washing with PBST, a mixture of 2 mouse monoclonal antibodies (11H05 and 13B12) at 1 μg/mL in 2-chain HMWK assay buffer were added for 1 hour at room temperature. Unbound detection antibodies were washed and a 1:2000 dilution of goat anti-mouse secondary antibody conjugated to horseradish peroxidase (HRP) was added. The assay containing the secondary antibody was incubated for 1 hour at room temperature, and unbound secondary antibody was removed by washing with 2-chain HMWK assay buffer. Signal was detected by the addition of 3,3′,5,5′-tetramethylbenzidine (TMB), an HRP substrate. The reaction was stopped with phosphoric acid. Hydrolysis of a TMB substrate was detected using a microplate reader at 450 nm-630 nm (FIG. 3). […] Using these immunoassay conditions, specifically binding to cleaved HMWK was detected.

[3] = target: T1, cleaved high molecular weight kininogen …; assay: 2-chain HMWK sandwich ELISA standard curve, citrated plasma spiked with 2-chain HMWK, 10% final dilution; capture Fab M0004-B04 as in FIG. 12 B
[4] = target: T1, cleaved high molecular weight kininogen …; assay: sandwich ELISA: Fab coated on 96-well plate, kininogen titrated, detection 11H05 + 13B12 and goat anti-mouse-HRP; value = C, midpoint of the printed 4-P fit; 2-chain HMWK spiked into SBT assay buffer
Description: (§2) Purified cleaved HMWK was spiked into SBT assay buffer (circles) or HMWK-deficient plasma (squares). Purified intact HMWK was spiked into SBT assay buffer (triangles). Purified LMWK was spiked into SBT assay buffer (diamonds). The y-axis presents the ELISA signal in absorbance units, and the x-axis presents the concentration of kininogen in μg/mL.
as §1, with “The assay containing the secondary antibody was incubated for 1 hour at room temperature, and unbound secondary antibody was removed by washing with 2-chain HMWK assay buffer.” left out, “The reaction was stopped with phosphoric acid.” left out

[5] = target: T2, intact high molecular weight kininogen (HMWK) (Homo sapiens, UniProt P01042 19-644); assay: sandwich ELISA: Fab coated on 96-well plate, kininogen titrated, detection 11H05 + 13B12 and goat anti-mouse-HRP; value = C, midpoint of the printed 4-P fit; 1-chain HMWK in SBT buffer; weak signal: only two points drawn (about 0.2 at 200, about 0.5 at 2000), fitted top 0.627 against 2.85 for 2-chain HMWK
T2 construct: also called intact HMWK; 1-chain HMWK
T2 sequence: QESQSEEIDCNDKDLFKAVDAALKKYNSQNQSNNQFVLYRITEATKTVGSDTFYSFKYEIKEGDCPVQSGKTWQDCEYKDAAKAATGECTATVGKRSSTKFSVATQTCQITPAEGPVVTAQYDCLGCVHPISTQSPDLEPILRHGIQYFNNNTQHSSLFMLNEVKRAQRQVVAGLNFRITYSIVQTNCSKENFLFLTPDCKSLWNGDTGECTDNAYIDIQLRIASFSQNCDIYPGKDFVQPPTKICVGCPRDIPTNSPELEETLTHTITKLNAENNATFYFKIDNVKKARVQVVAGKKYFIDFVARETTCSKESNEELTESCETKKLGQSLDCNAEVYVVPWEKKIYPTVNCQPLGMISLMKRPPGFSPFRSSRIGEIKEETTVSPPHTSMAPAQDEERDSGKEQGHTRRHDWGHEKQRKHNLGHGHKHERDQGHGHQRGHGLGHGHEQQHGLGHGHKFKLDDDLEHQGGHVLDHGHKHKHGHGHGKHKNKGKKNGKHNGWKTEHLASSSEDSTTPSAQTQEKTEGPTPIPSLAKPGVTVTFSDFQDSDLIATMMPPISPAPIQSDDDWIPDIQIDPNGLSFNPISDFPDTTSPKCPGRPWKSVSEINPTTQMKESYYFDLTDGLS
Description: as §2
as §1, with “The assay containing the secondary antibody was incubated for 1 hour at room temperature, and unbound secondary antibody was removed by washing with 2-chain HMWK assay buffer.” left out, “The reaction was stopped with phosphoric acid.” left out

- EC50 [1]: 204 µg/mL
- EC50 [2]: 0.00902 µg/mL and 0.0207 µg/mL and 0.0116 µg/mL
- EC50 (read off the curve) [3]: ~0.1 µg/mL
- EC50 [4]: 235 µg/mL
- EC50 [5]: 1110 µg/mL
B1: 559B-M0004-B04 (Fab, V domains shown)
VH: EVQLLESGGGLVQPGGSLRLSCAASGFTFSFYVMVWVRQAPGKGLEWVSGISPSGGNTAYADSVKGRFTISRDNSKNTLYLQMNSLRAEDTAVYYCARKLFYYDDTKGYFDFWGQGTLVTVSS
VL: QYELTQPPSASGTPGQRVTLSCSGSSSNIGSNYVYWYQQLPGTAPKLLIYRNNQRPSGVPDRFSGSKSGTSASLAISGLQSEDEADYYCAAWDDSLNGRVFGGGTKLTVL
notes: also called M004-B04
